From the RNAGym collection of RNA variant scans (doi:10.7554/elife.90254) come the findings set out here.

Sequences and labels used below:
B1: LINE1-mini (parent)
chain: GGCAGAGCUCAACACAGCGUGGCAAAGUGGCUGUGGCUAGACUGCC

Variants of B1 are the subject of this series. The series is described as follows: self-cleavage, relative activity (ratio to wild type); higher = more cleavage; in vitro, sequencing; the parent is a self-cleaving ribozyme.
Consider A4C G17A, for which the self-cleavage came to 0.08. For A4C G17C, the self-cleavage was determined as 0.08. A4C G17U: the self-cleavage turned out to be 0.08. Consider A4C C8A, for which the self-cleavage turned out to be 0.32. In the case of A4C C8G, the self-cleavage was 0.07. As for A4C C8U, the self-cleavage turned out to be 0.22.

A4C G21A: the self-cleavage was determined as 0.42. The same measure for A4C G21C: 0.18; for A4C G21U: 0.21. Regarding A4C G7U, the self-cleavage is 0.21. For the variant A4C G7A, the self-cleavage worked out at 0.87. The result for A4C G7C reads 0.17; that for A4C C45A, 0.12; that for A4C C45G, 0.17. The same measure for A4C C45U: 0.2.

As for A4C G19U, the self-cleavage amounted to 0.06. The result for A4C G19C reads 0.07; that for A4C G19A, 0.28; that for C3U U34G, 0.07. The result for C3U U34A reads 0.06; that for C3U U34C, 0.07; that for A4C A24U, 0.17. The result for A4C A24C reads 0.09; that for A4C A24G, 0.14; that for C3U G7A, 0.26. With C3U G7U, the self-cleavage stood at 0.11.

With C3U G7C, the self-cleavage came out at 0.17.

Turning to C3U U32A, the self-cleavage came to 0.07. The result for C3U U32G reads 0.09. Take C3U U32C: the self-cleavage came to 0.19. In the case of A4C C23A, the self-cleavage came out at 0.25. The same measure for A4C C23G: 0.23; for A4C C23U: 0.16.

On to C3U C42A, for which the self-cleavage was 0.09. The result for C3U C42G reads 0.07. On to C3U C42U, for which the self-cleavage is 0.14. The result for C3U G36A reads 0.34; that for C3U G36C, 0.19; that for C3U G36U, 0.22. The result for C3U G44A reads 1.07; that for C3U G44U, 0.23.

For C3U G44C, the self-cleavage was found to be 0.35. Take C3U C37U: the self-cleavage amounted to 0.14. The result for C3U C37A reads 0.12. As to C3U C37G, the self-cleavage is 0.05.

Turning to C3U G19U, the self-cleavage was 0.32. The same measure for C3U G19C: 0.25; for C3U G19A: 0.83. A4C A41C: the self-cleavage came out at 0.12. For the variant A4C A41G, the self-cleavage was 0.07. With A4C A41U, the self-cleavage worked out at 0.23. Regarding C3U G22U, the self-cleavage was 0.82.

Consider C3U G22A, for which the self-cleavage stood at 0.34. The result for C3U G22C reads 0.48; that for A4C, 0.19; that for A4C A6G, 0.37. The same measure for A4C A6U: 0.11; for A4C A6C: 0.09. With C3U U9G, the self-cleavage was 0.15.

Turning to C3U U9A, the self-cleavage was found to be 0.29. As for C3U U9C, the self-cleavage was determined as 0.07. The same measure for C3U C45A: 0.2; for C3U C45G: 0.12; for C3U C45U: 0.32.

In the case of A4C C31A, the self-cleavage was 0.14. With A4C C31G, the self-cleavage amounted to 0.06. In the case of A4C C31U, the self-cleavage was 0.06. The result for A4C A39C reads 0.07; that for A4C A39U, 0.09; that for A4C A39G, 0.9.

As for A4C C42U, the self-cleavage came out at 0.2.

Take A4C C42A: the self-cleavage amounted to 0.13. The result for A4C C42G reads 0.05; that for A4C A14G, 0.1. Take A4C A14C: the self-cleavage came out at 0.1.

As for A4C A14U, the self-cleavage was 0.22.

As for C3U G40A, the self-cleavage was 0.12. The same measure for C3U G40U: 0.12; for C3U G40C: 0.07; for A4C G30A: 0.24.

For the variant A4C C10U, the self-cleavage worked out at 0.09. As to A4C C10A, the self-cleavage was 0.04. On to A4C C10G, for which the self-cleavage was determined as 0.03. The result for C3U U20A reads 0.28; that for C3U U20G, 0.28.

On to C3U U20C, for which the self-cleavage is 0.15.

For the variant A4C C37G, the self-cleavage came to 0.05. Consider A4C C37A, for which the self-cleavage amounted to 0.28. As for A4C C37U, the self-cleavage worked out at 0.16. The result for A4C C15U reads 0.13; that for A4C C15A, 0.1; that for A4C C15G, 0.04. The same measure for C3U U38A: 0.19; for C3U U38C: 0.19. The result for C3U U38G reads 0.04; that for C3U G33U, 0.1.

As to C3U G33C, the self-cleavage was 0.07. For C3U G33A, the self-cleavage is 0.13. The same measure for A4C G27U: 0.07. The same measure for A4C G27A: 0.17; for A4C G27C: 0.07; for C3U U28G: 0.23. C3U U28C: the self-cleavage was 0.24. The same measure for C3U U28A: 0.4; for C3U G21A: 1.19. For C3U G21U, the self-cleavage was 0.41.

Turning to C3U G21C, the self-cleavage is 0.47. The same measure for A4C G29A: 0.07. The same measure for A4C G29U: 0.45. Consider A4C G29C, for which the self-cleavage came out at 0.24. The result for A4C A12C reads 0.03; that for A4C A12G, 0.06. Consider A4C A12U, for which the self-cleavage turned out to be 0.17. The result for A4C A25G reads 0.12; that for A4C A25U, 0.13; that for A4C A25C, 0.06. The result for C3U G29A reads 0.26; that for C3U G29U, 0.34; that for C3U G29C, 0.37. As to A4C A16G, the self-cleavage was 0.09.

As to A4C A16U, the self-cleavage amounted to 0.05. The result for A4C A16C reads 0.04; that for A4C A11C, 0.04; that for A4C A11U, 0.04. The same measure for A4C A11G: 0.04.

Regarding C3U U43A, the self-cleavage amounted to 0.14.

Turning to C3U U43C, the self-cleavage turned out to be 0.09. The result for C3U U43G reads 0.2; that for C3U C31A, 0.07. The same measure for C3U C31U: 0.1. The same measure for C3U C31G: 0.04. Take A4C G5C: the self-cleavage is 0.08.

Take A4C G5A: the self-cleavage was 0.12. The result for A4C G5U reads 0.21. For the variant C3U G17A, the self-cleavage was determined as 0.1.

For C3U G17U, the self-cleavage amounted to 0.12. For the variant C3U G17C, the self-cleavage stood at 0.18. The result for C3U G30C reads 0.44. The same measure for C3U G30A: 0.75. The result for C3U G30U reads 0.5; that for C3U G27A, 0.36; that for C3U G27U, 0.41. Consider C3U G27C, for which the self-cleavage was determined as 0.2. The same measure for A4C C46U: 0.18. The same measure for A4C C46A: 0.14; for A4C C46G: 0.13; for A4C G22C: 0.08. The result for A4C G22U reads 0.52. Take A4C G22A: the self-cleavage was 0.09. The same measure for C3U C46U: 0.21; for C3U C46G: 0.37; for C3U C46A: 0.18. The same measure for A4C C13U: 0.35. Consider A4C C13G, for which the self-cleavage is 0.17. The result for A4C C13A reads 0.15; that for A4C A26C, 0.1; that for A4C A26G, 0.15. Consider A4C A26U, for which the self-cleavage was 0.11. The same measure for C3U G5U: 0.2. For C3U G5A, the self-cleavage was found to be 0.21. The result for C3U G5C reads 0.27; that for A4C C18U, 0.05; that for A4C C18G, 0.11. The same measure for A4C C18A: 0.07; for C3U G35A: 0.22; for C3U G35U: 0.18. The result for C3U G35C reads 0.11.
